Assay results from US20110166062A1 (INDIANA UNIVERSITY RESEARCH AND TECHNOLOGY, published 2011).
Primed or numbered codes have the meaning given here. Where no end group is shown, it is not given here. [ ]: non-standard residue; d: D form. The star is where a group is joined. PEG 40 kDa″ = polyethylene glycol of 40 kDa covalently attached to the side chain; PEG 40 kDa = PEG (40 kDa) covalently attached to Cys; Myristoyl = CCCCCCCCCCCCCC(=O)*; Nle = CCCC[C@H](N)C(=O)O; Dab = NCC[C@H](N)C(=O)O; Aib = CC(C)(N)C(=O)O; Acm = CC(=O)NC*

Legend:
Experiment in all cases: cell-based or functional assay
glucagon receptor [1] = target: glucagon receptor (UniProt P47871 26-477, limits assumed)
Target sequence in this assay (P47871 26-477 limits assumed): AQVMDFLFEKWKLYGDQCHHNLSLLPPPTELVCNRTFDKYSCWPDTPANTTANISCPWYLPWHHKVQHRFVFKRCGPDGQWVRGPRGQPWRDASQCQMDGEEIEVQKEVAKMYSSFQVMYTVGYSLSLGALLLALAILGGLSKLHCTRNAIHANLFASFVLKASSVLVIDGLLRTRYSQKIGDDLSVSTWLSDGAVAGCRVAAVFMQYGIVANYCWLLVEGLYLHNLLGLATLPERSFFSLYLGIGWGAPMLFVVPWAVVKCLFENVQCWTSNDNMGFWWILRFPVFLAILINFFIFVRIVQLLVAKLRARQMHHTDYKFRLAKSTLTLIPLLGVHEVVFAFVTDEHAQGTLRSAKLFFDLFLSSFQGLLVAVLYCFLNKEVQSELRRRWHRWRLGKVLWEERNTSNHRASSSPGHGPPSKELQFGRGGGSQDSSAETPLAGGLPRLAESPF

GLP-1 receptor [2] = target: GLP-1 receptor (UniProt P43220 24-463, limits assumed)
GIP receptor [3] = target: T1, GIP receptor (UniProt P48546 22-466)
T1 sequence (looked up): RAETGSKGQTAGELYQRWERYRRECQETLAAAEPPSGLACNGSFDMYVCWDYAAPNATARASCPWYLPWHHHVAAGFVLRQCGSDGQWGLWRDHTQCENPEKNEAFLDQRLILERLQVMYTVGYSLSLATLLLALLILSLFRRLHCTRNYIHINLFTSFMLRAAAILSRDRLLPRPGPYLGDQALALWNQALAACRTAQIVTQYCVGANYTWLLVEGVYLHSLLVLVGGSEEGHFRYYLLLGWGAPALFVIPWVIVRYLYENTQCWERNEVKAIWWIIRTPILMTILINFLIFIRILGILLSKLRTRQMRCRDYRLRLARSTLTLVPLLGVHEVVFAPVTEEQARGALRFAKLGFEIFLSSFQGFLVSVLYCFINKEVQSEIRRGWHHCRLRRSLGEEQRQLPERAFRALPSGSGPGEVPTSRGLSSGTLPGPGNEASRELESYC

glucagon receptor [4] = target: T2, glucagon receptor (UniProt P47871 26-477, limits assumed); remark: listed apart in the source
T2 sequence (P47871 26-477 limits assumed): as the sequence (P47871 26-477 limits assumed) above

GLP-1 receptor [5] = target: GLP-1 receptor (UniProt P43220 24-463, limits assumed); remark: listed apart in the source
GIP receptor [6] = target: T3, GIP receptor (UniProt P48546 22-466); remark: listed apart in the source
T3 sequence (looked up): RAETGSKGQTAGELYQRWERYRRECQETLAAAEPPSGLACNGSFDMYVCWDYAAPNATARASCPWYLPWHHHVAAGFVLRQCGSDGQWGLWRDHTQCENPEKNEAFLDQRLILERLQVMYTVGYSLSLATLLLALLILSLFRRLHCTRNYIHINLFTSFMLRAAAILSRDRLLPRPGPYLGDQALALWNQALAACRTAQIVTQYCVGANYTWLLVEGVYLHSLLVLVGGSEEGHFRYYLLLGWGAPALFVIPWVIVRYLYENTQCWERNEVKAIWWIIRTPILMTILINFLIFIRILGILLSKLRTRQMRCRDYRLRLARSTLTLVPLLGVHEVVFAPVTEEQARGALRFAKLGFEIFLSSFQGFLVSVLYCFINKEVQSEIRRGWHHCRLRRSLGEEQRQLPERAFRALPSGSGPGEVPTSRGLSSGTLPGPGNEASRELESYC

glucagon receptor [7] = target: T2, glucagon receptor; remark: listed apart in the source

B1: mt-258 (peptide)
peptide: Y[Aib]QGTFTSDYSIYLDEQAA[Aib]EFVCWLLAG-NH2
modifications: N-terminus assumed
SMILES: CC[C@H](C)[C@H](NC(=O)[C@H](CO)NC(=O)[C@H](Cc1ccc(O)cc1)NC(=O)[C@H](CC(=O)O)NC(=O)[C@H](CO)NC(=O)[C@@H](NC(=O)[C@H](Cc1ccccc1)NC(=O)[C@@H](NC(=O)CNC(=O)[C@H](CCC(N)=O)NC(=O)C(C)(C)NC(=O)[C@@H](N)Cc1ccc(O)cc1)[C@@H](C)O)[C@@H](C)O)C(=O)N[C@@H](Cc1ccc(O)cc1)C(=O)N[C@@H](CC(C)C)C(=O)N[C@@H](CC(=O)O)C(=O)N[C@@H](CCC(=O)O)C(=O)N[C@@H](CCC(N)=O)C(=O)N[C@@H](C)C(=O)N[C@@H](C)C(=O)NC(C)(C)C(=O)N[C@@H](CCC(=O)O)C(=O)N[C@@H](Cc1ccccc1)C(=O)N[C@H](C(=O)N[C@@H](CS)C(=O)N[C@@H](Cc1c[nH]c2ccccc12)C(=O)N[C@@H](CC(C)C)C(=O)N[C@@H](CC(C)C)C(=O)N[C@@H](C)C(=O)NCC(N)=O)C(C)C
- EC50 (glucagon receptor [1]): 487 pM
- relative activity (glucagon receptor [1]): 14.1%
- EC50 (GLP-1 receptor [2]): 20.2 pM
- relative activity (GLP-1 receptor [2]): 58.9%
- EC50 (GIP receptor [3]): 57 pM
- relative activity (GIP receptor [3]): 16.8%

B2: mt-345 (peptide)
peptide: HXQGTFTSDYSKYLDEQAAKEFICWLMNGGPSSGAPPPSK
modifications: listed among the acylated glucagon peptides in paragraph 284; non-standard residues as in the sequence listing
- relative activity; Glucagon Receptor (glucagon receptor [4]): 193%
- relative activity; GLP-1 Receptor (GLP-1 receptor [5]): 153%
- relative activity; GIP Receptor (GIP receptor [6]): 4.99%

B3: Peptide J backbone with C(Acm) at position 3 (peptide)
peptide: HSC(Acm)GTFTSDYSKYLDTRRAAEFVAWL[Nle]DE
- % activity* (glucagon receptor [7]): 33%

B4: Peptide J backbone with Dab(Ac) at position 3 (peptide)
peptide: HS[Dab](Ac)GTFTSDYSKYLDTRRAAEFVAWL[Nle]DE
- % activity* (glucagon receptor [7]): 19%
- EC50 at Glucagon Receptor (glucagon receptor [7]): 310 pM

B5: mt-252 (peptide)
peptide: Y[Aib]QGTFTSDYSIYLDKQAA[Aib]EFVNWLLAGGPSSGAPPPSC-NH2
modifications: N-terminus assumed
SMILES: CC[C@H](C)[C@H](NC(=O)[C@H](CO)NC(=O)[C@H](Cc1ccc(O)cc1)NC(=O)[C@H](CC(=O)O)NC(=O)[C@H](CO)NC(=O)[C@@H](NC(=O)[C@H](Cc1ccccc1)NC(=O)[C@@H](NC(=O)CNC(=O)[C@H](CCC(N)=O)NC(=O)C(C)(C)NC(=O)[C@@H](N)Cc1ccc(O)cc1)[C@@H](C)O)[C@@H](C)O)C(=O)N[C@@H](Cc1ccc(O)cc1)C(=O)N[C@@H](CC(C)C)C(=O)N[C@@H](CC(=O)O)C(=O)N[C@@H](CCCCN)C(=O)N[C@@H](CCC(N)=O)C(=O)N[C@@H](C)C(=O)N[C@@H](C)C(=O)NC(C)(C)C(=O)N[C@@H](CCC(=O)O)C(=O)N[C@@H](Cc1ccccc1)C(=O)N[C@H](C(=O)N[C@@H](CC(N)=O)C(=O)N[C@@H](Cc1c[nH]c2ccccc12)C(=O)N[C@@H](CC(C)C)C(=O)N[C@@H](CC(C)C)C(=O)N[C@@H](C)C(=O)NCC(=O)NCC(=O)N1CCC[C@H]1C(=O)N[C@@H](CO)C(=O)N[C@@H](CO)C(=O)NCC(=O)N[C@@H](C)C(=O)N1CCC[C@H]1C(=O)N1CCC[C@H]1C(=O)N1CCC[C@H]1C(=O)N[C@@H](CO)C(=O)N[C@@H](CS)C(N)=O)C(C)C
- EC50 (glucagon receptor [1]): 319 pM
- relative activity (glucagon receptor [1]): 13.2%
- EC50 (GLP-1 receptor [2]): 18 pM
- relative activity (GLP-1 receptor [2]): 117%
- EC50 (GIP receptor [3]): 13 pM
- relative activity (GIP receptor [3]): 146%

B6: Peptide J backbone with Q at position 3 (peptide)
peptide: HSQGTFTSDYSKYLDTRRAAEFVAWL[Nle]DE
- % activity* (glucagon receptor [7]): 25%

B7: mt-341 (peptide)
peptide: Y[Aib]EGTFTSDK(Myristoyl)SIYLDKQAA[Aib]EFVC(PEG 40 kDa)WLLAGGPSSGAPPPS-NH2
- EC50, nM; Glucagon Receptor (glucagon receptor [4]): 499 nM
- relative activity; Glucagon Receptor (glucagon receptor [4]): 0.01%
- EC50, nM; GLP-1 Receptor (GLP-1 receptor [5]): 0.0636 nM
- relative activity; GLP-1 Receptor (GLP-1 receptor [5]): 14.6%
- EC50, nM; GIP Receptor (GIP receptor [6]): 0.0566 nM
- relative activity; GIP Receptor (GIP receptor [6]): 27.4%

B8: Peptide K backbone with Dab(Ac) at position 3 (peptide)
peptide: HS[Dab](Ac)GTFTSDYSKYLD[Aib]RRAADFVAWLMDE
- % activity* (glucagon receptor [7]): 86%
- EC50 at Glucagon Receptor (glucagon receptor [7]): 70 pM

B9: mt-255 (peptide)
peptide: Y[Aib]QGTFTSDYSIYLDKQAA[Aib]EFVNWLLAGGPSSGAPPPSC(PEG 40 kDa″)-NH2
- EC50 (glucagon receptor [1]): 5460 pM
- relative activity (glucagon receptor [1]): 2.45%
- EC50 (GLP-1 receptor [2]): 18 pM
- relative activity (GLP-1 receptor [2]): 117%
- EC50 (GIP receptor [3]): 13 pM
- relative activity (GIP receptor [3]): 146%
